# In the RNAGym collection of RNA variant scans (doi:10.1073/pnas.2313332121):
# B1: TPR t1 (parent)
# chain: GACCAAUCUGCCCUCAGAGCUCGAGAACAUCUUCGGAUGCAGAGGAGGCAGGCUUCGGUGGCGCGAUAGCGCCAACGUCCUCAACCUCCAAUGCAUCCCACCACAUGAUGAUGCCUGAAGAGCCUUGGUUUUUUG
# Variants of: B1
# Test: polymerase ribozyme fitness, log enrichment relative to wild type (log ratio); higher = more active; in vitro selection for triplet polymerase activity
# Outline: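 Libraries of mutants in each subunit of a heterodimeric triplet polymerase ribozyme were generated by PCR and transcribed. In triplicate, each went through one in vitro selection round: annealing with biotinylated primer, partner subunit and triplets; frozen incubation at −7 °C; gel excision of extended constructs; streptavidin-bead capture; RT-PCR. Fitness, taken from Illumina sequencing of input and output libraries, is the logarithm of a genotype's enrichment over wild-type enrichment, averaged across replicates with inverse-variance weights. The logarithm is base 2, and genotypes needed ≥10 input reads and ≥1 read per output to be kept.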
row,Variant,polymerase ribozyme fitness (log ratio)
1,A5G U9G U21A C56U A83U,0.0637
2,C73U A95C,-1.16
3,C11G A27U G47C G69U A83U,-2.78
4,A2C G60A C82U,-2.16
5,A27G U87C,-1.74
6,U32C G47U G48U C104G G117U G127C,-6.32
7,U78A A118G,-0.761
8,A37U U133G,-1.2
9,C85A U106A,-2.53
10,C11G A37C C53U,0.228
11,A27C G47U,-4.29
12,C28G G47U C53U,-4.48
13,G51C C99U,-7.54
14,C80A A95U C114U C124U,-7.55
15,C53U C72U A111U,-3.11
16,A29U C76A,-1.91
17,U87C C89A G113A,-2.28
18,G10C G57C,-0.669
19,U81A U87C A121G,1.6
20,A83C C94U G128A,-2.4
21,G47A G71U,-0.472

row,Variant,polymerase ribozyme fitness (log ratio)
1,G47A G57U G69U G117A U133G,-1.83
2,A41C U55A G61U C102U,-3.48
3,C3U A6U G45U C72G C79G C114A,-5.66
4,C11A G69A C82U,-3.91
5,G113A G128U,-2.37
6,C12U A41U A66U,-2.82
7,C34A C53U C98A,-1.98
8,A43C G45A G48C,-3.39
9,A6U C11U,0.0672
10,G17U C22G U33G G61A C115A,-4.69
11,A41C C56G,-4.05
12,A6U A18U A74C C85G C115A U129G,-4.74
13,C82G C97U,-1.16
14,C8G G42U G58C,-0.604
15,G57C C72U U129A,-1.29
16,G36C U92A A118U,-3.89
17,C56U C79A G113U,-4.28
18,C15A G45A C97U A121G U130G,-0.808
19,C73G U109A C114U C123A U130G U132A,-4.38
20,C8G G61A U109A U132C,-4.05
21,C3A C70U,-1.64

row,Variant,polymerase ribozyme fitness (log ratio)
1,C56G G113A,-1.08
2,C11G A27U G36A G58A,-3.1
3,U9A C12A C13A A18G A100U,-6.25
4,U78G G120U,-0.202
5,C53G C70U C86U A119G,-0.0477
6,C56U C114G,-2.54
7,G42C C70G,-5.52
8,G117A G135C,-1.41
9,A43G C53A U78C C88U,-1.22
10,A29G A43C G122A,-4.45
11,G42A A46C G63C U106A,-3.82
12,G44A G60U A108U C115A A121U,-4.86
13,G44A A66G U133G,-2.29
14,C13G C115A,-1.77
15,C20U G77A A84U U112G,-2.88
16,A50U C88U A118U,-0.957
17,C34G U87G U109A,-6.29
18,U7A C12U U59C,0.392
19,A43U U81A C85G C124U,-4.75
20,A26U G48C,-3.53
21,C101A U109A,-5.05

row,Variant,polymerase ribozyme fitness (log ratio)
1,C8G C79U U96A U130C U133G,-0.147
2,A46G C56A A84C C104A C115U A118U A119U,-3.57
3,G19U C34A G69C C114U,-6.59
4,C4G U9G U116C G128U U131C,-0.342
5,C13G G58C C64U U92C,-3.39
6,A74C C104A C114A,-4.14
7,U54A C62U,-1.02
8,G44U A46U,-1.83
9,G45A G51A C79G C82U C86U U112A C115A,-7.28
10,C85U A91C,-2.1
11,C94U G128C,-4.18
12,G52U G61C,0.0885
13,G35A G48C,-4.48
14,G42U A68U C123G U130A,-5.54
15,C4U C12U A16G C40A G57U,-2.2
16,A18C C73U,-2.53
17,C70G G120U,-2.36
18,A27C C53A C82U,-4.15
19,G36U A74G A83U C101G,-3.95
20,A121G U132A,1.94
21,A41C U133G,-1.16
